One block for each binder: values may come before it.
Experiments:
neuropilin-1 receptor = biological target: T1, neuropilin-1 receptor (human, UniProt O14786 22-923); experiment: Sema3A-AP on parental U87MG cells expressing Nrp1, alkaline phosphatase colorimetric assay
T1 construct: whole, on cells; Endogenous receptor on human cells; also called Nrp1; nrp1

[1] = biological target: T2, WT-Sema3A with C-terminal His tag (human, UniProt Q14563 21-771, limits assumed); experiment: inferred by the filing from the phosphorylation assay in BLCL versus BLCL+CD72 cells
T2 construct: also called wild type Sema3A; WT-Sema3A peptide; not shown: C-terminal His tag
T2 sequence: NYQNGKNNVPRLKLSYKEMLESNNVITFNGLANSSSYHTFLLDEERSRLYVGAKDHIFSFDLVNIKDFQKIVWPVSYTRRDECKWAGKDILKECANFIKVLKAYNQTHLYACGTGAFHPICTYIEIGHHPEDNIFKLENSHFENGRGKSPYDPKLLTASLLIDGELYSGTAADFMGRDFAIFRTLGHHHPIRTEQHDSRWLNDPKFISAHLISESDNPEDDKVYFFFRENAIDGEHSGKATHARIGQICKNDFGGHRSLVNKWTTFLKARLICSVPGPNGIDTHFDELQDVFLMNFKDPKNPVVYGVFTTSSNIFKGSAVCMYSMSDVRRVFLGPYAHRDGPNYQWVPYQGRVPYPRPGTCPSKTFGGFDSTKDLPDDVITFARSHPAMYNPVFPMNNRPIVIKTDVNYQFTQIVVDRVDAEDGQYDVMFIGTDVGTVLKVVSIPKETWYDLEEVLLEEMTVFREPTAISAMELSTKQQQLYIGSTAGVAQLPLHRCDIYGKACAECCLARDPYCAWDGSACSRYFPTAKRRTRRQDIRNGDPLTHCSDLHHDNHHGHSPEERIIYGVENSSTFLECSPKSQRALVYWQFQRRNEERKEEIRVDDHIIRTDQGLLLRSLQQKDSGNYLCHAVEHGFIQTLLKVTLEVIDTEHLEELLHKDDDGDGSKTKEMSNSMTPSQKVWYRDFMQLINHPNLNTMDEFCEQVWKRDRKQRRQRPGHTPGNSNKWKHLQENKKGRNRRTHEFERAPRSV
Procedure: Cells were serum starved for 16 h. At the day of the experiment, cells were activated with 5 μg/ml anti IgM for 5 min at 37° C. and then 10 μg/ml of Sema3A or elution buffer as a control were added for extra 10 min at 37° C. The experiment was terminated by a wash with ice cold PBS and lysed with phosphorylation lysis buffer (50 mM Tris-HCl pH-7.5, 150 mM NaCl, 2 mM EDTA, 2 mM EGTA, 5 mM NaF, 2 mM Na₃VO₄, 10 mM Na₄P₂O₇, 1% Triton X-100). 80 μg of proteins were subjected to SDS-PAGE and immunoblotted with an antibody directed against phosphorylated target protein, the blot was then stripped and re-probed with an antibody directed against total protein. Western blots were probed with the following antibodies: anti STAT4 (C-4) (Santa Cruz Biotechnology), anti phospho-STAT4 (Tyr693) (Santa Cruz Biotechnology), p38 MAPK Antibody (Cell Signaling Technology, Inc), Phospho-p38 MAPK (Thr180/Tyr182) Antibody (Cell Signaling Technology, Inc). Quantification of band intensity was performed using ImageQuant LAS 4000 program.
To test whether Sema3A signal transduction is mediated by CD72, Furthermore, CD72 was expressed in primary B-lymphoblastoid cells that lack neuropilin-1. […] Next, BLCL cells and BLCL cells expressing CD72 (BLCL+CD72) were stimulated with WT-Sema3A peptide. The phosphorylation state of Stat-4 and P38 was than determined. […]

T1 sequence (O14786 22-923): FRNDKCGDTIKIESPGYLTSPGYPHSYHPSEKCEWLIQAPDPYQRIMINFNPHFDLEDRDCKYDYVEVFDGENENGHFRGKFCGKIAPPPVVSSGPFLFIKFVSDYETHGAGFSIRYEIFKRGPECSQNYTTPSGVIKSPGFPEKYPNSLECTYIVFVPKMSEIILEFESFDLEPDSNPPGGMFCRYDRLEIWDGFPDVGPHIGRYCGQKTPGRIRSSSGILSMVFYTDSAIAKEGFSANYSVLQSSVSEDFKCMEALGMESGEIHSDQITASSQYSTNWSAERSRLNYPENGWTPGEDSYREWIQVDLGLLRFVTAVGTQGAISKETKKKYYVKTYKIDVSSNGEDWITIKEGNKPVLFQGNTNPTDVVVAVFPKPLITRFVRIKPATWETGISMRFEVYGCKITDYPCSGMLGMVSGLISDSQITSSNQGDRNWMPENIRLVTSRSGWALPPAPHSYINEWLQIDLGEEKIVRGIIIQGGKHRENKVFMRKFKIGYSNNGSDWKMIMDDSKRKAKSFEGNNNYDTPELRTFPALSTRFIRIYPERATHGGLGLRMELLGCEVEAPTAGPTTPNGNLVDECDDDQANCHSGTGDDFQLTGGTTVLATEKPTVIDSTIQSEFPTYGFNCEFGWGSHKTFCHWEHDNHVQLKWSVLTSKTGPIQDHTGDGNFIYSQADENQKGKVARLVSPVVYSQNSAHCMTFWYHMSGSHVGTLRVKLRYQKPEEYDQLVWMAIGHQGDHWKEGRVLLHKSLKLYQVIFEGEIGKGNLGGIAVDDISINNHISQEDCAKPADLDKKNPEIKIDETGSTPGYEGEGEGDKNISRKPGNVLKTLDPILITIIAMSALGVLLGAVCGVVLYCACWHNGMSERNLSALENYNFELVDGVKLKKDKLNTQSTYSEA

binding result (neuropilin-1 receptor): binds
B1: Sema3A-AP (WT-Sema3A in frame with alkaline phosphatase) (ligand)
chain: T2 sequence
notes: Secreted by HEK293-Sema3A-AP cells and used as 50-fold concentrated conditioned medium; also called Sema3A-Alkaline Phosphatase; AP-Sema3A; not shown: alkaline phosphatase fused in frame

binding result [1]: binds
B2: CD72 (full-length, untagged, on cells: BLCL-CD72 cells; CD4+ T cells) (receptor, human, UniProt P21854 1-359, looked up)
chain: MAEAITYADLRFVKAPLKKSISSRLGQDPGADDDGEITYENVQVPAVLGVPSSLASSVLGDKAAVKSEQPTASWRAVTSPAVGRILPCRTTCLRYLLLGLLLTCLLLGVTAICLGVRYLQVSQQLQQTNRVLEVTNSSLRQQLRLKITQLGQSAEDLQGSRRELAQSQEALQVEQRAHQAAEGQLQACQADRQKTKETLQSEEQQRRALEQKLSNMENRLKPFFTCGSADTCCPSGWIMHQKSCFYISLTSKNWQESQKQCETLSSKLATFSEIYPQSHSYYFLNSLLPNGGSGNSYWTGLSSNKDWKLTDDTQRTRTYAQSSKCNKVHKTWSWWTLESESCRSSLPYICEMTAFRFPD
notes: whole, on cells; also called CD72 receptor

— US20230272020A1 (MEDICAL RESEARCH AND DEVELOPMENT FUND FOR HEALTH SERVICES …, published 2023)
